According to article PMC11757143, “Generation and characterization of OX40-ligand fusion protein that agonizes OX40 on T-Lymphocytes” (Frontiers in Immunology, 2025):

Experiments:
Fc-scOX40L (mouse) = Fc-scOX40L (mouse) (UniProt P43488); test: non-reducing SDS-PAGE and immunoblot; recombinant OX40L proteins in Laemmli sample buffer, non-heated/non-reducing, SDS-PAGE, immunoblot with anti-PA tag antibody; oligomers judged by molecular weight
scOX40L-Fc (mouse) = scOX40L-Fc (mouse) (UniProt P43488); test: as above

stoichiometry N (Fc-scOX40L (mouse))	stoichiometry N (scOX40L-Fc (mouse))	Substance
2		Fc-scOX40L (from UniProt P43488 51-198; P43488 51-198; P43488 51-198) (Fc fusion)
	2	scOX40L-Fc (from UniProt P43488 51-198; P43488 51-198; P43488 51-198) (Fc fusion)
